Test results as given in patent US20160032004A1 (published 2016).

Assays:
[1] = biological target: T1, CD74 (invariant chain, Ii) (human, UniProt P04233 1-296); experiment: flow cytometry, membrane-only, Capan-1 cells
T1 construct: whole, on cells; Endogenous antigen of human cancer cell lines; measured on the surface only or on surface plus cytoplasm (permeabilized cells)
T1 sequence (looked up): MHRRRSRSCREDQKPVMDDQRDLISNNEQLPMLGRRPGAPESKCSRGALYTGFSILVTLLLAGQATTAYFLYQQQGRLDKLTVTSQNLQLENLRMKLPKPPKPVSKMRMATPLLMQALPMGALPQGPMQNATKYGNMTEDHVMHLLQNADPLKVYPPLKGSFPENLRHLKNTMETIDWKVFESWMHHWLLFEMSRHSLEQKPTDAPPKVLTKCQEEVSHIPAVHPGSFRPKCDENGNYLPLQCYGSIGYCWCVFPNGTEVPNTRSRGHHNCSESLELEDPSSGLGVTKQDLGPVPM

[2] = biological target: T1, CD74 (invariant chain, Ii); experiment: flow cytometry, permeabilized HuH-7 cells
[3] = biological target: T1, CD74 (invariant chain, Ii); experiment: flow cytometry, permeabilized A-375 cells
[4] = biological target: T1, CD74 (invariant chain, Ii); experiment: flow cytometry, membrane-only, HuH-7 cells
[5] = biological target: T1, CD74 (invariant chain, Ii); experiment: flow cytometry, permeabilized Raji cells
[6] = biological target: T1, CD74 (invariant chain, Ii); experiment: flow cytometry, membrane-only, Raji cells
[7] = biological target: T1, CD74 (invariant chain, Ii); experiment: flow cytometry, membrane-only, NCI-N87 cells
[8] = biological target: T1, CD74 (invariant chain, Ii); experiment: flow cytometry, permeabilized Hs746T cells
[9] = biological target: T1, CD74 (invariant chain, Ii); experiment: flow cytometry, permeabilized Capan-1 cells
[10] = biological target: T1, CD74 (invariant chain, Ii); experiment: flow cytometry, membrane-only, Hs746T cells
[11] = biological target: T1, CD74 (invariant chain, Ii); experiment: flow cytometry, permeabilized Hep-G2 cells
[12] = biological target: T1, CD74 (invariant chain, Ii); experiment: flow cytometry, membrane-only, A-375 cells
[13] = biological target: T1, CD74 (invariant chain, Ii); experiment: cell binding assay on antigen-positive cells
[14] = biological target: T1, CD74 (invariant chain, Ii); experiment: flow cytometry, permeabilized NCI-N87 cells
[15] = biological target: T1, CD74 (invariant chain, Ii); experiment: flow cytometry, membrane-only, Hep-G2 cells

MFI Ratio hLL1:bkgd (surface) [1]: 1.8
MFI Ratio hLL1:bkgd (surface and cytoplasmic) [2]: 28.5
MFI Ratio hLL1:bkgd (surface and cytoplasmic) [3]: 30.8
MFI Ratio hLL1:bkgd (surface) [4]: 1.6
MFI Ratio hLL1:bkgd (surface and cytoplasmic) [5]: 28.6
MFI Ratio hLL1:bkgd (surface) [6]: 19.6
MFI Ratio hLL1:bkgd (surface) [7]: 1.3
MFI Ratio hLL1:bkgd (surface and cytoplasmic) [8]: 28.8
MFI Ratio hLL1:bkgd (surface and cytoplasmic) [9]: 49.6
MFI Ratio hLL1:bkgd (surface) [10]: 2.1
MFI Ratio hLL1:bkgd (surface and cytoplasmic) [11]: 31.2
MFI Ratio hLL1:bkgd (surface) [12]: 5.3
Kd [13]: 770 pM
MFI Ratio hLL1:bkgd (surface and cytoplasmic) [14]: 36.7
MFI Ratio hLL1:bkgd (surface) [15]: 1.5
B1: Milatuzumab (humanized anti-CD74 antibody, hLL1) (antibody, V domains shown)
VH: QVQLQQSGSELKKPGASVKVSCKASGYTFTNYGVNWIKQAPGQGLQWMGWINPNTGEPTFDDDFKGRFAFSLDTSVSTAYLQISSLKADDTAVYFCSRSRGKNEAWFAYWGQGTLVTVSS
VL: DIQLTQSPLSLPVTLGQPASISCRSSQSLVHRNGNTYLHWFQQRPGQSPRLLIYTVSNRFSGVPDRFSGSGSGTDFTLKISRVEAEDVGVYFCSQSSHVPPTFGAGTRLEIK
